Experimental data from publication PMC6821831, “Colorimetric Assay Reports on Acyl Carrier Protein Interactions” (Scientific Reports, 2019).

B1: FabF (E. coli ketoacyl synthase) (enzyme, UniProt P0AAI5 1-413, looked up)
chain: MSKRRVVVTGLGMLSPVGNTVESTWKALLAGQSGISLIDHFDTSAYATKFAGLVKDFNCEDIISRKEQRKMDAFIQYGIVAGVQAMQDSGLEITEENATRIGAAIGSGIGGLGLIEENHTSLMNGGPRKISPFFVPSTIVNMVAGHLTIMYGLRGPSISIATACTSGVHNIGHAARIIAYGDADVMVAGGAEKASTPLGVGGFGAARALSTRNDNPQAASRPWDKERDGFVLGDGAGMLVLEEYEHAKKRGAKIYAELVGFGMSSDAYHMTSPPENGAGAALAMANALRDAGIEASQIGYVNAHGTSTPAGDKAEAQAVKTIFGEAASRVLVSSTKSMTGHLLGAAGAVESIYSILALRDQAVPPTINLDNPDEGCDLDFVPHEARQVSGMEYTLCNSFGFGGTNGSLIFKKI
notes: E. coli ketoacyl synthase FabF; Sediments mostly as a dimer in SV-AUC; also called KS; E. coli KS FabF; source: E. coli BL21, purified (Ni-NTA)
B2: holo-AcpP (E. coli FAS acyl carrier protein, 4'-phosphopantetheine arm installed), P0A6A8 1-78 (natural protein)
chain: MSTIEERVKKIIGEQLGVKQEEVTNNASFVEDLGADSLDTVELVMALEEEFDTEIPDEEAEKITTVQAAIDYINGHQA
modifications: here or on the partner: 4'-phosphopantetheine (Ppant) arm on the conserved serine at the N-terminus of helix II (holo form); 4'-phosphopantetheine (Ppant) arm on the conserved serine at the N-terminus of helix II (holo form)
B3: holo-AcpP (E. coli FAS acyl carrier protein, 4'-phosphopantetheine arm installed) (natural protein, UniProt P0A6A8 1-78, looked up)
chain: B2 chain
modifications: 4'-phosphopantetheine (Ppant) arm on the conserved serine at the N-terminus of helix II (holo form)
notes: E. coli fatty acid synthase acyl carrier protein AcpP, UniProt P0A6A8; N- and C-terminal His6, from pKJ5535 or pTL14; AUC section gives 12.3 kDa for AcpP; also called E. coli ACP; source: E. coli BAP1, purified (Ni-NTA); converted to holo form on resin with Sfp R4-4 and coenzyme A
B4: AcpP-TNB− (E. coli AcpP with the Ppant thiol as mixed disulfide with 2-nitro-5-thiobenzoate) (natural protein, UniProt P0A6A8 1-78, looked up)
chain: B2 chain
modifications: 4'-phosphopantetheine arm on the conserved serine; its terminal thiol is a mixed disulfide with 2-nitro-5-thiobenzoate (TNB−)
notes: E. coli fatty acid synthase acyl carrier protein AcpP, UniProt P0A6A8; also called ACP-TNB−; AcpP-TNB− adduct; source: E. coli BAP1, purified (Ni-NTA), converted to holo form with Sfp R4-4, treated with DTNB, desalted (PD-10)

Legend:
[1] = target: the molecule itself; assay: AUC; sedimentation velocity of each protein alone; FabF 10-36 uM, holo-AcpP 345-488 uM, holo-ACT ACP (wild type) 98-196 uM; 20 mM Tris-HCl pH 8.0, 150 mM NaCl, 1 mM DTT, 20 C
[2] = target: T1, holo-AcpP (E. coli FAS acyl carrier protein, 4'-phosphopantetheine arm installed) (E. coli), P0A6A8; assay: as above; conditions: remark: other sources report otherwise
T1 chain: B2 chain

[3] = target: B1; assay: AUC; sedimentation velocity titration; FabF constant at 16 uM, AcpP 0-230 uM or ACT ACP 0-250 uM; 20 mM Tris-HCl pH 8.0, 150 mM NaCl, 1 mM DTT, 20 C; s(w) and EPT s(w) fast isotherms fitted globally to A + B <-> AB; conditions: both partners purified
[4] = target: B1; assay: colorimetric read-out of the cross-linking (TNB2− release, A412); ACP-TNB− mixed with FabF at ACP-TNB:FabF molar ratios 0.2:1 to 3:1; 50 mM sodium phosphate pH 7.6, 20 min, room temperature; A412 of the reaction mixture; conditions: both partners purified

Question: B1 was tested. Which “stoichiometry N” value [1] did it give?
Answer: Its value is 2.

Question: B2 was tested. Which stoichiometry N [2] did it give?
Answer: Its stoichiometry N is 4.

Question: B3 was tested. Which Kd [3] did it give?
Answer: The Kd was 6.4 ± 2 µM.

Question: How did the “stoichiometry N” value [4] turn out when B4 was run?
Answer: The value was 1.
